Consider 21 variants from the supplement of paper PMC6757056.

± gives the standard deviation of the averaged measurements.

The labels stand for the following.
B1: library; a variant is named by its letters at N, in order (parent)
chain: GCUGUCACCGGUGCUUGGUACGUUAUAUUCAGCCGGUCUGAUGAGUCUNNNNNNAGACGAAACAGC

Data set [1] covers variants of B1. Nature of the data set: normalized RNA/DNA level without ligand (relative to sTRSVctl = 100) (log10 (% of sTRSVctl)); HEK293T overexpressing SLC46A1; higher = less ribozyme self-cleavage, higher mRNA level. Conditions: without (6R,S)-folinic acid; ligand present: no. In a few lines: (§1)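 Ribozyme switch library plasmids linked to reporters were introduced into HEK293T cells at 4 µg per 6-well well, with ligand, if any, added 1 h before. Total RNA was extracted with EDTA 72 h later, reverse-transcribed, amplified, barcoded and sequenced. RNA level was computed from RNA over DNA reads relative to a spiked-in non-cleaving sequence or the top sequences, then scaled and log-transformed. The top set was 25 sequences, values were ×100 and log10, and the cutoff was ≥100 DNA reads.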

In data set [2] the parent is B1. Nature of the data set: normalized RNA/DNA level with ligand (relative to sTRSVctl = 100) (log10 (% of sTRSVctl)); HEK293T overexpressing SLC46A1; ligand concentration (+) RNA-Seq: 6 mM; higher = less ribozyme self-cleavage, higher mRNA level. Conditions: with (6R,S)-folinic acid; ligand present: yes. The gist of the method: as §1

With GCUGUCACCGGUGCUUGGUACGUUAUAUUCAGCCGGUCUGAUGAGUCUACUACCAGACGAAACAGC [ACUACC], the “normalized RNA/DNA level without ligand (log10)” value in data set [1] was 2.03 ± 0.0033. Besides, the “normalized RNA/DNA level with ligand (log10)” value in data set [2] is 2.01 ± 0.04.

Turning to GCUGUCACCGGUGCUUGGUACGUUAUAUUCAGCCGGUCUGAUGAGUCUACUACAAGACGAAACAGC [ACUACA], the “normalized RNA/DNA level without ligand (log10)” value in data set [1] turned out to be 1.99 ± 0.021. Besides, the “normalized RNA/DNA level with ligand (log10)” value in data set [2] stood at 2.01 ± 0.021.

In the case of GCUGUCACCGGUGCUUGGUACGUUAUAUUCAGCCGGUCUGAUGAGUCUACUACGAGACGAAACAGC [ACUACG], in data set [1], the “normalized RNA/DNA level without ligand (log10)” value was 1.938 ± 0.0043. Besides, in data set [2], the “normalized RNA/DNA level with ligand (log10)” value was found to be 2.006 ± 0.02.

On to GCUGUCACCGGUGCUUGGUACGUUAUAUUCAGCCGGUCUGAUGAGUCUGCUACCAGACGAAACAGC [GCUACC], for which the “normalized RNA/DNA level without ligand (log10)” value in data set [1] was 2.06 ± 0.023. Besides, the “normalized RNA/DNA level with ligand (log10)” value in data set [2] worked out at 2.05 ± 0.033.

Consider GCUGUCACCGGUGCUUGGUACGUUAUAUUCAGCCGGUCUGAUGAGUCUGCUACUAGACGAAACAGC [GCUACU], for which the “normalized RNA/DNA level without ligand (log10)” value in data set [1] stood at 2.019 ± 0.0099. For the same variant, in data set [2], the “normalized RNA/DNA level with ligand (log10)” value worked out at 1.98 ± 0.043.

As for GCUGUCACCGGUGCUUGGUACGUUAUAUUCAGCCGGUCUGAUGAGUCUGCUACGAGACGAAACAGC [GCUACG], in data set [1], the “normalized RNA/DNA level without ligand (log10)” value was found to be 2.026 ± 0.0068. For the same variant, the “normalized RNA/DNA level with ligand (log10)” value in data set [2] worked out at 2.065 ± 0.0045.

Take GCUGUCACCGGUGCUUGGUACGUUAUAUUCAGCCGGUCUGAUGAGUCUGCUAAGAGACGAAACAGC [GCUAAG]: in data set [1], the “normalized RNA/DNA level without ligand (log10)” value turned out to be 1.968 ± 0.003. Moreover, the “normalized RNA/DNA level with ligand (log10)” value in data set [2] amounted to 2.024 ± 0.016.

Consider GCUGUCACCGGUGCUUGGUACGUUAUAUUCAGCCGGUCUGAUGAGUCUUCUACCAGACGAAACAGC [UCUACC], for which the “normalized RNA/DNA level without ligand (log10)” value in data set [1] is 2.0547 ± 0.001. Further, the “normalized RNA/DNA level with ligand (log10)” value in data set [2] was found to be 2.054 ± 0.018.

For GCUGUCACCGGUGCUUGGUACGUUAUAUUCAGCCGGUCUGAUGAGUCUUCUACUAGACGAAACAGC [UCUACU], the “normalized RNA/DNA level without ligand (log10)” value in data set [1] worked out at 2.019 ± 0.0065. The “normalized RNA/DNA level with ligand (log10)” value in data set [2] was determined as 2.03 ± 0.029.

For the variant GCUGUCACCGGUGCUUGGUACGUUAUAUUCAGCCGGUCUGAUGAGUCUUCUACGAGACGAAACAGC [UCUACG], the “normalized RNA/DNA level without ligand (log10)” value in data set [1] was 1.891 ± 0.0021. In data set [2], the “normalized RNA/DNA level with ligand (log10)” value was 2.01 ± 0.017.

As for GCUGUCACCGGUGCUUGGUACGUUAUAUUCAGCCGGUCUGAUGAGUCUUCUACAAGACGAAACAGC [UCUACA], the “normalized RNA/DNA level without ligand (log10)” value in data set [1] came to 2.057 ± 0.0079. Besides, the “normalized RNA/DNA level with ligand (log10)” value in data set [2] worked out at 2.0488 ± 0.002.

In the case of GCUGUCACCGGUGCUUGGUACGUUAUAUUCAGCCGGUCUGAUGAGUCUCCUAGGAGACGAAACAGC [CCUAGG], the “normalized RNA/DNA level without ligand (log10)” value in data set [1] is 2.05 ± 0.03. In addition, the “normalized RNA/DNA level with ligand (log10)” value in data set [2] amounted to 2.043 ± 0.0025.

GCUGUCACCGGUGCUUGGUACGUUAUAUUCAGCCGGUCUGAUGAGUCUCCUAGUAGACGAAACAGC [CCUAGU]: the “normalized RNA/DNA level without ligand (log10)” value in data set [1] is 2.074 ± 0.0064. Besides, the “normalized RNA/DNA level with ligand (log10)” value in data set [2] came to 2.06 ± 0.029.

As for GCUGUCACCGGUGCUUGGUACGUUAUAUUCAGCCGGUCUGAUGAGUCUCCUAGAAGACGAAACAGC [CCUAGA], in data set [1], the “normalized RNA/DNA level without ligand (log10)” value came to 2.05 ± 0.016. Moreover, the “normalized RNA/DNA level with ligand (log10)” value in data set [2] was 2.05 ± 0.046.

As to GCUGUCACCGGUGCUUGGUACGUUAUAUUCAGCCGGUCUGAUGAGUCUACUAUCAGACGAAACAGC [ACUAUC], in data set [1], the “normalized RNA/DNA level without ligand (log10)” value was 2.063 ± 0.0022. Moreover, the “normalized RNA/DNA level with ligand (log10)” value in data set [2] worked out at 2.04 ± 0.038.

In the case of GCUGUCACCGGUGCUUGGUACGUUAUAUUCAGCCGGUCUGAUGAGUCUACUAUAAGACGAAACAGC [ACUAUA], the “normalized RNA/DNA level without ligand (log10)” value in data set [1] worked out at 1.983 ± 0.012. Moreover, the “normalized RNA/DNA level with ligand (log10)” value in data set [2] amounted to 2.013 ± 0.0097.

Take GCUGUCACCGGUGCUUGGUACGUUAUAUUCAGCCGGUCUGAUGAGUCUGCUAGCAGACGAAACAGC [GCUAGC]: in data set [1], the “normalized RNA/DNA level without ligand (log10)” value is 2.035 ± 0.017. Further, the “normalized RNA/DNA level with ligand (log10)” value in data set [2] is 2.016 ± 0.012.

As for GCUGUCACCGGUGCUUGGUACGUUAUAUUCAGCCGGUCUGAUGAGUCUGCUAGGAGACGAAACAGC [GCUAGG], the “normalized RNA/DNA level without ligand (log10)” value in data set [1] was 1.951 ± 0.016. In addition, in data set [2], the “normalized RNA/DNA level with ligand (log10)” value was found to be 2.031 ± 0.0073.

Take GCUGUCACCGGUGCUUGGUACGUUAUAUUCAGCCGGUCUGAUGAGUCUGCUAGAAGACGAAACAGC [GCUAGA]: the “normalized RNA/DNA level without ligand (log10)” value in data set [1] was 2.002 ± 0.0075. Also, the “normalized RNA/DNA level with ligand (log10)” value in data set [2] is 2.042 ± 0.012.

GCUGUCACCGGUGCUUGGUACGUUAUAUUCAGCCGGUCUGAUGAGUCUGCUAGUAGACGAAACAGC [GCUAGU]: the “normalized RNA/DNA level without ligand (log10)” value in data set [1] was found to be 1.98 ± 0.024. For the same variant, in data set [2], the “normalized RNA/DNA level with ligand (log10)” value is 2.01 ± 0.046.

In the case of GCUGUCACCGGUGCUUGGUACGUUAUAUUCAGCCGGUCUGAUGAGUCUGCUAUCAGACGAAACAGC [GCUAUC], in data set [1], the “normalized RNA/DNA level without ligand (log10)” value is 2.083 ± 0.0023. The “normalized RNA/DNA level with ligand (log10)” value in data set [2] worked out at 2.013 ± 0.019.
